In paper PMC3347520, “Relative Comparison of Catalytic Characteristics of Human Foamy Virus and HIV-1 Integrases”:

Target: HFV integrase (HFV IN) (Human foamy virus, UniProt P14350 752-1143)
Test: EMSA; 5 mM Mg2+
Details: protein: recombinant; chain copies: 4; blunt

B1: U5-HFV duplex (U5B-HFV/U5A-HFV) (dsDNA)
DNA 1: ATACAAAATTCCATGACAAT
DNA 2: ATTGTCATGGAATTTTGTAT
Kd: 0.0173 µM
